Measured values: US20120172293A1 (Takeda / Millennium, published 2012)
Starred links: 1 amine or outer side, 2 acyl side, 3 side chain; linkers in the order of their positions; H or OH if unused. Non-standard residues stand in square brackets, D forms with d. No end group written: not given here. *: point of attachment. 2‑hydroxyethylcarbamoyl = O=C(NCCO)*; tBuAla = CC(C)(C)C[C@H](N)C(=O)O; 4Pal = N[C@@H](Cc1ccncc1)C(=O)O; dHyp = O=C(O)[C@H]1C[C@H](O)CN1; Cha = N[C@@H](CC1CCCCC1)C(=O)O; Suc = O=C(CCC(=O)[*:2])[*:1]; 4Amb = NCc1ccc(C(=O)O)cc1; Iva = CC[C@](C)(N)C(=O)O; Nva = CCC[C@H](N)C(=O)O; Aib = CC(C)(N)C(=O)O; Carbamoyl = NC(=O)*

T1: human Y2 receptor (human, UniProt P49146 1-381)
T1 construct: whole, on cells; used as membrane fraction of hY2R/CHO cells; also called human NPY2R; hY2R
T1 sequence (looked up): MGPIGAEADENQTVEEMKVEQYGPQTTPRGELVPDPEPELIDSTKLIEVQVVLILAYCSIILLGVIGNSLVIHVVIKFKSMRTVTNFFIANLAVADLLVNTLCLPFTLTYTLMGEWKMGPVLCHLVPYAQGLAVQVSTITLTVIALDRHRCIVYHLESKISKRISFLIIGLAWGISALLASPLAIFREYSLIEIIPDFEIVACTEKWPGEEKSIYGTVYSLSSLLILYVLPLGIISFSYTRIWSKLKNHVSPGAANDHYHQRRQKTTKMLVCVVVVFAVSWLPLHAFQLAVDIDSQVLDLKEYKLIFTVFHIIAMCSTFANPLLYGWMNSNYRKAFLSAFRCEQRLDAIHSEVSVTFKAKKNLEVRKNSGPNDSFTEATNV

B1: Ac-[Glu23, D-Hyp24, Iva25, Pya(4)26, Cha27,36, Leu(Me)28, Lys30, Aib31]-PYY(23-36) (peptide)
peptide: Ac-E[dHyp][Iva][4Pal][Cha][tBuAla]NK[Aib]TRQR[Cha]-NH2
SMILES: CC[C@](C)(NC(=O)[C@H]1C[C@H](O)CN1C(=O)[C@H](CCC(=O)O)NC(C)=O)C(=O)N[C@@H](Cc1ccncc1)C(=O)N[C@@H](CC1CCCCC1)C(=O)N[C@@H](CC(C)(C)C)C(=O)N[C@@H](CC(N)=O)C(=O)N[C@@H](CCCCN)C(=O)NC(C)(C)C(=O)N[C@H](C(=O)N[C@@H](CCCNC(=N)N)C(=O)N[C@@H](CCC(N)=O)C(=O)N[C@@H](CCCNC(=N)N)C(=O)N[C@@H](CC1CCCCC1)C(N)=O)[C@@H](C)O
B2: Ac-[D-Pro24, Iva25, Pya(4)26, Cha27,36, Nva28, Aib31, Lys30]-PYY(23-36) (peptide)
peptide: Ac-S[dP][Iva][4Pal][Cha][Nva]NK[Aib]TRQR[Cha]-NH2
SMILES: CCC[C@H](NC(=O)[C@H](CC1CCCCC1)NC(=O)[C@H](Cc1ccncc1)NC(=O)[C@](C)(CC)NC(=O)[C@H]1CCCN1C(=O)[C@H](CO)NC(C)=O)C(=O)N[C@@H](CC(N)=O)C(=O)N[C@@H](CCCCN)C(=O)NC(C)(C)C(=O)N[C@H](C(=O)N[C@@H](CCCNC(=N)N)C(=O)N[C@@H](CCC(N)=O)C(=O)N[C@@H](CCCNC(=N)N)C(=O)N[C@@H](CC1CCCCC1)C(N)=O)[C@@H](C)O
B3: 4-Aminomethylbenzoyl-[D-Arg25, Ala26, Ile28,31]-PYY(25-36) (peptide)
peptide: [4Amb][dR]AYINLITRQRY-NH2
modifications: N-terminus assumed
SMILES: CC[C@H](C)[C@H](NC(=O)[C@H](Cc1ccc(O)cc1)NC(=O)[C@H](C)NC(=O)[C@@H](CCCNC(=N)N)NC(=O)c1ccc(CN)cc1)C(=O)N[C@@H](CC(N)=O)C(=O)N[C@@H](CC(C)C)C(=O)N[C@H](C(=O)N[C@H](C(=O)N[C@@H](CCCNC(=N)N)C(=O)N[C@@H](CCC(N)=O)C(=O)N[C@@H](CCCNC(=N)N)C(=O)N[C@@H](Cc1ccc(O)cc1)C(N)=O)[C@@H](C)O)[C@@H](C)CC
notes: also called compound No. 9
B4: Carbamoyl-[D-Pro24, Cha27,28,36, Aib31]-PYY(23-36) (peptide)
peptide: Carbamoyl-S[dP]RH[Cha][Cha]NL[Aib]TRQR[Cha]-NH2
SMILES: CC(C)C[C@H](NC(=O)[C@H](CC(N)=O)NC(=O)[C@H](CC1CCCCC1)NC(=O)[C@H](CC1CCCCC1)NC(=O)[C@H](Cc1c[nH]cn1)NC(=O)[C@H](CCCNC(=N)N)NC(=O)[C@H]1CCCN1C(=O)[C@H](CO)NC(N)=O)C(=O)NC(C)(C)C(=O)N[C@H](C(=O)N[C@@H](CCCNC(=N)N)C(=O)N[C@@H](CCC(N)=O)C(=O)N[C@@H](CCCNC(=N)N)C(=O)N[C@@H](CC1CCCCC1)C(N)=O)[C@@H](C)O
notes: also called compound No. 130; Ureido-[D-Pro24,Cha27,28,36,Aib31]-PYY(23-36)
B5: 2-Hydroxyethylcarbamoyl-[D-Pro24, Cha27,36, Leu(Me)28, Lys30, Aib31]-PYY(23-36) (peptide)
peptide: {2‑hydroxyethylcarbamoyl}-S[dP]RH[Cha][tBuAla]NK[Aib]TRQR[Cha]-NH2
SMILES: C[C@@H](O)[C@H](NC(=O)C(C)(C)NC(=O)[C@H](CCCCN)NC(=O)[C@H](CC(N)=O)NC(=O)[C@H](CC(C)(C)C)NC(=O)[C@H](CC1CCCCC1)NC(=O)[C@H](Cc1c[nH]cn1)NC(=O)[C@H](CCCNC(=N)N)NC(=O)[C@H]1CCCN1C(=O)[C@H](CO)NC(=O)NCCO)C(=O)N[C@@H](CCCNC(=N)N)C(=O)N[C@@H](CCC(N)=O)C(=O)N[C@@H](CCCNC(=N)N)C(=O)N[C@@H](CC1CCCCC1)C(N)=O
notes: also called compound No. 188
B6: 2-Hydroxyethylcarbamoyl-[Glu23, D-Pro24, Cha27,28,36, Lys30, Aib31]-PYY(23-36) (peptide)
peptide: {2‑hydroxyethylcarbamoyl}-E[dP]RH[Cha][Cha]NK[Aib]TRQR[Cha]-NH2
SMILES: C[C@@H](O)[C@H](NC(=O)C(C)(C)NC(=O)[C@H](CCCCN)NC(=O)[C@H](CC(N)=O)NC(=O)[C@H](CC1CCCCC1)NC(=O)[C@H](CC1CCCCC1)NC(=O)[C@H](Cc1c[nH]cn1)NC(=O)[C@H](CCCNC(=N)N)NC(=O)[C@H]1CCCN1C(=O)[C@H](CCC(=O)O)NC(=O)NCCO)C(=O)N[C@@H](CCCNC(=N)N)C(=O)N[C@@H](CCC(N)=O)C(=O)N[C@@H](CCCNC(=N)N)C(=O)N[C@@H](CC1CCCCC1)C(N)=O
notes: also called compound No. 192
B7: 3-Carboxypropionyl-[D-Pro24, Cha27,28,36, Lys30, Aib31]-PYY(23-36) (peptide)
peptide: Suc-S[dP]RH[Cha][Cha]NK[Aib]TRQR[Cha]-NH2
SMILES: C[C@@H](O)[C@H](NC(=O)C(C)(C)NC(=O)[C@H](CCCCN)NC(=O)[C@H](CC(N)=O)NC(=O)[C@H](CC1CCCCC1)NC(=O)[C@H](CC1CCCCC1)NC(=O)[C@H](Cc1c[nH]cn1)NC(=O)[C@H](CCCNC(=N)N)NC(=O)[C@H]1CCCN1C(=O)[C@H](CO)NC(=O)CCC(=O)O)C(=O)N[C@@H](CCCNC(=N)N)C(=O)N[C@@H](CCC(N)=O)C(=O)N[C@@H](CCCNC(=N)N)C(=O)N[C@@H](CC1CCCCC1)C(N)=O
notes: also called compound No. 167

target: human Y2 receptor (human) (UniProt P49146); assay: RBA: displacement of [125I]-PYY from hY2R/CHO membranes

Binder	IC50 Ratio (IC50 compound/IC50 PYY(3-36))
B1	1.2
B2	1.6

target: T1, human Y2 receptor; assay: RBA: [125I]-PYY displacement, hY2R/CHO membranes
Method: After incubation at room temperature for 60 minutes, the mixture was filtered through the cell harvester FilterMate (PerkinElmer) using UniFilter-96 GF/C treated with polyethylenimine (PEI) solution (20 mM Tris, 0.3% PEI, pH 7.4), and the filter was washed 3 times with a filtering buffer (50 mM Tris, 5 mM MgCl₂, 150 mM NaCl, 0.03% NaN₃, 0.05% CHAPS, pH 7.4). Thereafter, UniFilter-96 GF/C was dried in a mechanical drier for 1 hour, 15 μl of the liquid scintillator MicroScint O (PerkinElmer) was added to each well, and a measurement was taken using TopCount (PerkinElmer). The data obtained were analyzed using Prism to calculate the IC₅₀ value.

Binder	IC50 Ratio (vs PYY(3-36))
B3	92 ratio
B4	1.8 ratio
B5	0.6 ratio
B6	1.3 ratio
B7	0.64 ratio

target: T1, human Y2 receptor; assay: cell-based or functional assay

Binder	GBA EC50 Ratio (vs PYY(3-36)), [35S]GTPγS
B3	23 ratio
B4	1 ratio
B5	0.71 ratio
B6	1.2 ratio
B7	1.1 ratio

target: human Y2 receptor (human) (UniProt P49146); assay: cell-based or functional assay

Binder	GBA EC50 Ratio ([35S]GTPγS binding) (EC50 compound/EC50 PYY(3-36))
B1	1.9
B2	1.3
